Data from patent US20260152568A1 (NECTIN THERAPEUTICS, published 2026).

T1: human PVR (SPR of the humanized variants, Example 5) (human, UniProt P15151 21-343)
T1 sequence: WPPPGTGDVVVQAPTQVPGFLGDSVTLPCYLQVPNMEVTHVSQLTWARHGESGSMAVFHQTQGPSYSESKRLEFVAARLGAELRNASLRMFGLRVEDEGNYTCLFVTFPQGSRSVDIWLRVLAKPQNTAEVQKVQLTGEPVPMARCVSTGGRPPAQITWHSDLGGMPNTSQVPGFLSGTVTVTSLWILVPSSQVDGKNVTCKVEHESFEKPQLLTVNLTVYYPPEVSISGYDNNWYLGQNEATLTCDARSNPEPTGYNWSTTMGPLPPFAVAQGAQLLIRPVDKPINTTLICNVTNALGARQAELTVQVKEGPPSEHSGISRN


How the values were obtained:
[1] = molecular target: human poliovirus receptor (PVR, CD155) expressed on cells (human) (UniProt P15151); assay: flow cytometry, binding to PVR-expressing HEK 293 cells; relative to N56E VH0/Vκ0
[2] = molecular target: human poliovirus receptor (PVR, CD155) expressed on cells (human) (UniProt P15151); assay: flow cytometry, binding to PVR-expressing HEK 293 cells
[3] = molecular target: T1, human PVR (SPR of the humanized …); assay: SPR
[4] = molecular target: T1, human PVR (SPR of the humanized …); assay: SPR; relative to N56E VH0/Vκ0

| Binder | Relative EC50 [1] | EC50 [2] [nM] | Kd [3] [nM] | Relative KD [4] |
| --- | --- | --- | --- | --- |
| humanized 5B9 variant VH3/VK2 (antibody, V domains shown) VH: QVQLVQSGAEVKKPGASVKVSCKATGYTFSNYWIEWIKQAPGQGLEWIGEIFPGSGRINFNEKFKGRVTFTADTSISTTYMELSRLRSDDTAVYYCARTKIYGNSFDYWGQGTLVTVSS VL: DIQMTQSPSSLSASVGDRVTITCKASQDVGTAVVWYQQKPGKAPKLLIYWASSRHEGVPDRFSGSGSGTDFTLTISSLQPEDFADYFCQQYSRYPLTFGQGTKLEIK | 0.66 | 0.52 | 4.32 | 0.78 |
| IgG4(S241P)_N56E_VH1/Vκ4 (antibody, V domains shown, humanized 5B9 variant with Vk4; also called VH1/Vk4) VH: QVQLVQSGAELKKPGASVKISCKATGYTFSNYWIEWIKQAPGQGLEWIGEIFPGSGRINFNEKFKGRATFTADTSIDTTYMQLSSLTSDDSAVYYCARTKIYGNSFDYWGQGTTVTVSS VL: DIQMTQSPSSLSASVGDRVTITCRASQDVGTAVAWYQQKPGKAPKSLIYWASSRHEGVPSRFSGSGSGTDFTLTISSLQPEDFATYFCQQYSRYPLTFGQGTKLEIK | – | – | 69.3 | 12.5 |
| IgG4(S241P)_N56E_VH2/Vκ4 (antibody, V domains shown, humanized 5B9 variant with Vk4; also called VH2/Vk4) VH: QVQLVQSGAEVKKPGASVKISCKATGYTFSNYWIEWIKQAPGQGLEWIGEIFPGSGRINFNEKFKGRATFTADTSIDTTYMELSRLRSDDTAVYYCARTKIYGNSFDYWGQGTLVTVSS VL: DIQMTQSPSSLSASVGDRVTITCRASQDVGTAVAWYQQKPGKAPKSLIYWASSRHEGVPSRFSGSGSGTDFTLTISSLQPEDFATYFCQQYSRYPLTFGQGTKLEIK | – | – | 78.3 | 14.1 |
| IgG4(S241P)_N56E_VH3/Vκ4 (antibody, V domains shown, humanized 5B9 variant with Vk4, as IgG4; also called VH3/Vk4) VH: QVQLVQSGAEVKKPGASVKVSCKATGYTFSNYWIEWIKQAPGQGLEWIGEIFPGSGRINFNEKFKGRVTFTADTSISTTYMELSRLRSDDTAVYYCARTKIYGNSFDYWGQGTLVTVSS VL: DIQMTQSPSSLSASVGDRVTITCRASQDVGTAVAWYQQKPGKAPKSLIYWASSRHEGVPSRFSGSGSGTDFTLTISSLQPEDFATYFCQQYSRYPLTFGQGTKLEIK | – | – | 75.2 | 13.6 |
| humanized 5B9 variant VH1/VK3 (antibody, V domains shown) VH: QVQLVQSGAELKKPGASVKISCKATGYTFSNYWIEWIKQAPGQGLEWIGEIFPGSGRINFNEKFKGRATFTADTSIDTTYMQLSSLTSDDSAVYYCARTKIYGNSFDYWGQGTTVTVSS VL: DIQMTQSPSSLSASVGDRVTITCRASQDVGTAVVWYQQKPGKAPKLLIYWASSRHEGVPSRFSGSGSGTDFTLTISSLQPEDFATYFCQQYSRYPLTFGQGTKLEIK | – | – | 4.98 | 0.9 |
| humanized 5B9 variant VH2/VK2 (antibody, V domains shown) VH: QVQLVQSGAEVKKPGASVKISCKATGYTFSNYWIEWIKQAPGQGLEWIGEIFPGSGRINFNEKFKGRATFTADTSIDTTYMELSRLRSDDTAVYYCARTKIYGNSFDYWGQGTLVTVSS VL: DIQMTQSPSSLSASVGDRVTITCKASQDVGTAVVWYQQKPGKAPKLLIYWASSRHEGVPDRFSGSGSGTDFTLTISSLQPEDFADYFCQQYSRYPLTFGQGTKLEIK | 0.81 | 0.64 | 4.67 | 0.84 |
| humanized 5B9 variant VH5/VK1 (antibody, V domains shown) VH: QVQLVQSGAEVKKPGASVKVSCKATGYTFSNYWIEWVRQAPGQGLEWMGEIFPGSGRINFNEKFKGRVTFTADTSISTAYMELSRLRSDDTAVYYCARTKIYGNSFDYWGQGTLVTVSS VL: DIMMTQSPSFLSASVGDRVTITCKASQDVGTAVVWYQQKPGKAPKLLIYWASSRHEGVPDRFTGSGSGTDFTLTISSLQSEDFADYFCQQYSRYPLTFGQGTKLEIK | – | – | 5.91 | 1.07 |
| IgG4(S241P)_N56E_VH5/Vκ4 (antibody, V domains shown, humanized 5B9 variant with Vk4; also called VH5/Vk4) VH: QVQLVQSGAEVKKPGASVKVSCKATGYTFSNYWIEWVRQAPGQGLEWMGEIFPGSGRINFNEKFKGRVTFTADTSISTAYMELSRLRSDDTAVYYCARTKIYGNSFDYWGQGTLVTVSS VL: DIQMTQSPSSLSASVGDRVTITCRASQDVGTAVAWYQQKPGKAPKSLIYWASSRHEGVPSRFSGSGSGTDFTLTISSLQPEDFATYFCQQYSRYPLTFGQGTKLEIK | – | – | 76.8 | 13.9 |

More lines, in order of falling Kd [3], values ahead:

| Relative EC50 [1] | EC50 [2] [nM] | Kd [3] [nM] | Relative KD [4] | Binder |
| --- | --- | --- | --- | --- |
| – | – | 4.62 | 0.83 | humanized 5B9 variant VH4/VK1 (antibody, V domains shown) VH: QVQLVQSGAEVKKPGASVKVSCKATGYTFSNYWIEWVRQAPGQGLEWIGEIFPGSGRINFNEKFKGRVTFTADTSISTTYMELSRLRSDDTAVYYCARTKIYGNSFDYWGQGTLVTVSS VL: DIMMTQSPSFLSASVGDRVTITCKASQDVGTAVVWYQQKPGKAPKLLIYWASSRHEGVPDRFTGSGSGTDFTLTISSLQSEDFADYFCQQYSRYPLTFGQGTKLEIK |
| – | – | 4.56 | 0.82 | humanized 5B9 variant VH3/VK1 (antibody, V domains shown) VH: QVQLVQSGAEVKKPGASVKVSCKATGYTFSNYWIEWIKQAPGQGLEWIGEIFPGSGRINFNEKFKGRVTFTADTSISTTYMELSRLRSDDTAVYYCARTKIYGNSFDYWGQGTLVTVSS VL: DIMMTQSPSFLSASVGDRVTITCKASQDVGTAVVWYQQKPGKAPKLLIYWASSRHEGVPDRFTGSGSGTDFTLTISSLQSEDFADYFCQQYSRYPLTFGQGTKLEIK |
| – | – | 4.5 | 0.81 | IgG4(S241P)_N56E_VH1/Vκ0 (antibody, V domains shown, half-humanized control pairing; also called VH1/Vk0) VH: QVQLVQSGAELKKPGASVKISCKATGYTFSNYWIEWIKQAPGQGLEWIGEIFPGSGRINFNEKFKGRATFTADTSIDTTYMQLSSLTSDDSAVYYCARTKIYGNSFDYWGQGTTVTVSS VL: DIMMTQSHKFMSTSVGDRVNITCKASQDVGTAVVWYQQKPGQSPKLLIYWASSRHEGVPDRFTGSGSGTDFTLTISNVQSEDLSDYFCQQYSRYPLTFGAGTKLELK |
| – | – | 4.17 | 0.75 | humanized 5B9 variant VH1/VK1 (antibody, V domains shown) VH: QVQLVQSGAELKKPGASVKISCKATGYTFSNYWIEWIKQAPGQGLEWIGEIFPGSGRINFNEKFKGRATFTADTSIDTTYMQLSSLTSDDSAVYYCARTKIYGNSFDYWGQGTTVTVSS VL: DIMMTQSPSFLSASVGDRVTITCKASQDVGTAVVWYQQKPGKAPKLLIYWASSRHEGVPDRFTGSGSGTDFTLTISSLQSEDFADYFCQQYSRYPLTFGQGTKLEIK |
| – | – | 4.03 | 0.73 | IgG4(S241P)_N56E_VH0/Vκ1 (antibody, V domains shown, half-humanized control pairing; also called VH0/Vk1) VH: QVQLQQSGAELMKPGASVKISCKATGYTFSNYWIEWIKQRPGHGLEWIGEIFPGSGRINFNEKFKGKATFTADTSSDTTYMQLSSLTSADSAVYYCARTKIYGNSFDYWGQGTTLTVSP VL: DIMMTQSPSFLSASVGDRVTITCKASQDVGTAVVWYQQKPGKAPKLLIYWASSRHEGVPDRFTGSGSGTDFTLTISSLQSEDFADYFCQQYSRYPLTFGQGTKLEIK |
| – | – | 4.01 | 0.72 | humanized 5B9 variant VH1/VK2 (antibody, V domains shown) VH: QVQLVQSGAELKKPGASVKISCKATGYTFSNYWIEWIKQAPGQGLEWIGEIFPGSGRINFNEKFKGRATFTADTSIDTTYMQLSSLTSDDSAVYYCARTKIYGNSFDYWGQGTTVTVSS VL: DIQMTQSPSSLSASVGDRVTITCKASQDVGTAVVWYQQKPGKAPKLLIYWASSRHEGVPDRFSGSGSGTDFTLTISSLQPEDFADYFCQQYSRYPLTFGQGTKLEIK |
| – | – | 3.96 | 0.71 | humanized 5B9 variant VH2/VK1 (antibody, V domains shown) VH: QVQLVQSGAEVKKPGASVKISCKATGYTFSNYWIEWIKQAPGQGLEWIGEIFPGSGRINFNEKFKGRATFTADTSIDTTYMELSRLRSDDTAVYYCARTKIYGNSFDYWGQGTLVTVSS VL: DIMMTQSPSFLSASVGDRVTITCKASQDVGTAVVWYQQKPGKAPKLLIYWASSRHEGVPDRFTGSGSGTDFTLTISSLQSEDFADYFCQQYSRYPLTFGQGTKLEIK |
